# Assay results published in patent US20110091473A1, “NOVEL ANTIBODY THERAPIES” (GENMAB A/S, priority 2007, published 2011).
# T1: human CD20 (human, UniProt P11836 1-297)
# T1 sequence (looked up): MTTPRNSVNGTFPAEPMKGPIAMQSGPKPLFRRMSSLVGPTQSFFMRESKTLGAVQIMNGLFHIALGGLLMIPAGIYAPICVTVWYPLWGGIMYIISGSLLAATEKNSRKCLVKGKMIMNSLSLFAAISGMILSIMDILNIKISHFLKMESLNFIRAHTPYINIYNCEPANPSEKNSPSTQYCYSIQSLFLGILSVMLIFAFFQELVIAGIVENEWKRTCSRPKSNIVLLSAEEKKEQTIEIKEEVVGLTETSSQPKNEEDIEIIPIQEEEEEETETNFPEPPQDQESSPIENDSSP
# B1: rituximab (antibody, V domains shown)
# VH: QVQLQQPGAELVKPGASVKMSCKASGYTFTSYNMHWVKQTPGRGLEWIGAIYPGNGDTSYNQKFKGKATLTADKSSSTAYMQLSSLTSEDSAVYYCARSTYYGGDWYFNVWGAGTTVTVSA
# VL: QIVLSQSPAILSASPGEKVTMTCRASSSVSYIHWFQQKPGSSPKPWIYATSNLASGVPVRFSGSGSGTSYSLTISRVEAEDAATYYCQQWTSNPPTFGGGTKLEIK
# B2: CD20 mAb 11B8 (antibody, V domains shown)
# VH: EVQLVQSGGGLVHPGGSLRLSCTGSGFTFSYHAMHWVRQAPGKGLEWVSIIGTGGVTYYADSVKGRFTISRDNVKNSLYLQMNSLRAEDMAVYYCARDYYGAGSFYDGLYGMDVWGQGTTVTVSS
# VL: EIVLTQSPATLSLSPGERATLSCRASQSVSSYLAWYQQKPGQAPRLLIYDASNRATGIPARFSGSGSGTDFTLTISSLEPEDFAVYYCQQRSDWPLTFGGGTKVEIK
# Experiments:
# human CD20 [1] = target: T1, human CD20; experiment: flow cytometry, FITC-conjugated antibody on freshly isolated B cells of five patients after 80 mg atorvastatin
# Excerpt: Informed consent was provided according to the Declaration of Helsinki.
# [2] = system: cell surface proteins on RAJI cells; experiment: FACS binding of mAbs to cell surface proteins on RAJI cells; format: cell-based, human; settings: increasing concentrations of MβCD
# Experimental: B cells (either non-treated cells, cholesterol-depleted cells via MβCD or lovastatin, or cholesterol-reconstituted cells) were characterized for quantitative surface expression of the B cell markers CD19, CD20, and CD21, the T-cell marker CD3, complement regulatory proteins CD55 and CD59, and HLA-DR and CD81 by direct immunofluorescence. […] After washing twice with FACS buffer (PBS, 0.1% Bovine Serum Albumine, 0.02% Sodium Azide), the cells were analyzed on a flow cytometer.
# human CD20 [3] = target: T1, human CD20; experiment: cell-based or functional assay
molecule,measurement,setting,value
CD20 mAb B1 (GlaxoSmithKline) (antibody),"average decrease of the CD20/CD21 MFI ratio, day 3 against day 0 (so in the source)",human CD20 [1],96%
methyl-beta-cyclodextrin [MβCD],"binding of mAbs against CD19, CD20, CD55, CD59, HLA-DR and CD81",[2],negatively correlated
same,mAb binding to CD21,[2],not affected
B1,"EC50 of rituximab-mediated ADCC, 51Cr release, lovastatin-treated RAJI cells, PBMC effector cells",human CD20 [3],0.082 µg/mL
same,"EC50 of rituximab-mediated ADCC, 51Cr release, non-treated RAJI cells, PBMC effector cells",human CD20 [3],0.024 µg/mL
B2,"average decrease of the CD20/CD21 MFI ratio, day 3 against day 0 (so in the source)",human CD20 [1],84%
